# Positions of bridges follow the written chain, without caps; N, C: chain ends. Non-standard residues stand in square brackets, D forms with d. Primed or numbered codes have the meaning given here. No end group written: not given here. FAM″ = 5(6)-carboxyfluorescein label; pS = N[C@@H](COP(=O)(O)O)C(=O)O; FAM = 5(6)-carboxyfluorescein; S5 = C=CCCC[C@](C)(N)C(=O)O
# T1: clathrin heavy chain minimal ankle region (CHC^ankle, aa 358–574) (human, UniProt Q00610 358-574)
# T1 construct: modified pGEX vector with a TEV-cleavable GST tag; also called CHC ankle region protein; WT CHC
# T1 sequence (looked up): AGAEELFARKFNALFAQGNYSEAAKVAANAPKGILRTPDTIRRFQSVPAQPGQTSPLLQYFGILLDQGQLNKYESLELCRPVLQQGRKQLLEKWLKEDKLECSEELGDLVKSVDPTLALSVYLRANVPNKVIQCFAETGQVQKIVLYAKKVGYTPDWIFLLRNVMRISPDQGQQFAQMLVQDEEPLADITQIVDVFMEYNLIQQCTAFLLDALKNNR
# T2: biotinylated Avi-tagged ankle region of clathrin (aa 358–574) (human, UniProt Q00610 358-574, biotin)
# T2 construct: held on a streptavidin chip (SPR) or detected with an anti-biotin antibody (peptide arrays)
# T2 sequence (looked up): T1 sequence (looked up)
# B1: FAM-TACC3 CID K562A peptide, unphosphorylated (peptide, UniProt Q9Y6A5 549-570, looked up)
# peptide: {FAM}-FKESALRKQSLYLAFDPLLRDS
# notes: human TACC3 CID, aa 549-570, K562A, no phosphate; also called K562A^TACC3; source: synthetic peptide, bought: PPR, Alta Bioscience or Biomatik Corporation
# B2: FAM-pTACC3 CID K562A peptide (peptide, UniProt Q9Y6A5 549-570, looked up)
# peptide: {FAM}-FKESALRKQ[pS]LYLAFDPLLRDS
# notes: human TACC3 CID, aa 549-570, pS558, K562A; also called K562A^pTACC3; source: synthetic peptide, bought: PPR, Alta Bioscience or Biomatik Corporation
# B3: FAM-pTACC3 CID R555A K562A peptide (peptide, UniProt Q9Y6A5 549-570, looked up)
# peptide: {FAM}-FKESALAKQ[pS]LYLAFDPLLRDS
# notes: human TACC3 CID, aa 549-570, pS558, R555A and K562A; also called R555A K562A^pTACC3; source: synthetic peptide, bought: PPR, Alta Bioscience or Biomatik Corporation
# B4: FAM-TACC3 CID S558E peptide (peptide, UniProt Q9Y6A5 549-570, looked up)
# peptide: {FAM}-FKESALRKQELYLKFDPLLRDS
# notes: human TACC3 CID, aa 549-570, S558E; also called phosphomimetic glutamic acid variant; S558E TACC3^CID; source: synthetic peptide, bought: PPR, Alta Bioscience or Biomatik Corporation
# B5: FAM-pTACC3 CID R555A peptide (peptide, UniProt Q9Y6A5 549-570, looked up)
# peptide: {FAM}-FKESALAKQ[pS]LYLKFDPLLRDS
# notes: human TACC3 CID, aa 549-570, pS558, R555A; also called R555A^pTACC3; source: synthetic peptide, bought: PPR, Alta Bioscience or Biomatik Corporation
# B6: negative control SP TACC3 (F563A & L566A) (peptide)
# chain: {FAM″}-KESALRK[S5]ELL[S5]EADPAFRDS-NH2
# modifications: staple 8-12
# B7: GB1-pTACC3 (domain or fragment, human, UniProt Q9Y6A5 545-573, looked up)
# chain: GTSSFKESALRKQ[pS]LYLKFDPLLRDSPGR
# modifications: also: 15N/13C labelled
# notes: human TACC3 aa 545-573 (the results say aa 546-573), pS558, fused to the small protein GB1; also called phosphorylated GB1-TACC3 CID; source: E. coli BL21 (DE3) RIL, purified; phosphorylated in situ with Aurora-A (122–403) and TPX2 (1–43); not shown: His-NusA, N-terminal, cleaved
# B8: array peptide TACC3 550–568 S558D Y560W K562L (peptide, UniProt Q9Y6A5 550-568, looked up)
# peptide: KESALRKQDLWLLFDPLLR
# modifications: also: 8-amino-3,6-dioxaoctanoic acid spacer to cellulose membrane, end not given here
# notes: human TACC3 aa 550-568 with S558D, Y560W, K562L; source: synthesised on cellulose membrane (MultiPep 2)
# B9: array peptide TACC3 550–568 S558D Y560L K562Q (peptide, UniProt Q9Y6A5 550-568, looked up)
# peptide: KESALRKQDLLLQFDPLLR
# modifications: also: 8-amino-3,6-dioxaoctanoic acid spacer to cellulose membrane, end not given here
# notes: human TACC3 aa 550-568 with S558D, Y560L, K562Q; source: synthesised on cellulose membrane (MultiPep 2)
# B10: array peptide TACC3 550–568 S558D Y560W K562L L567F (peptide, UniProt Q9Y6A5 550-568, looked up)
# peptide: KESALRKQDLWLLFDPLFR
# modifications: also: 8-amino-3,6-dioxaoctanoic acid spacer to cellulose membrane, end not given here
# notes: human TACC3 aa 550-568 with S558D, Y560W, K562L, L567F; source: synthesised on cellulose membrane (MultiPep 2)
# B11: array peptide TACC3 550–568 S558D Y560L K562I L567F (peptide, UniProt Q9Y6A5 550-568, looked up)
# peptide: KESALRKQDLLLIFDPLFR
# modifications: also: 8-amino-3,6-dioxaoctanoic acid spacer to cellulose membrane, end not given here
# notes: human TACC3 aa 550-568 with S558D, Y560L, K562I, L567F; source: synthesised on cellulose membrane (MultiPep 2)
# B12: array peptide TACC3 550–568 S558D Y560I K562L (peptide, UniProt Q9Y6A5 550-568, looked up)
# peptide: KESALRKQDLILLFDPLLR
# modifications: also: 8-amino-3,6-dioxaoctanoic acid spacer to cellulose membrane, end not given here
# notes: human TACC3 aa 550-568 with S558D, Y560I, K562L; source: synthesised on cellulose membrane (MultiPep 2)
# B13: array peptide TACC3 550–568 S558D Y560L K562E (peptide, UniProt Q9Y6A5 550-568, looked up)
# peptide: KESALRKQDLLLEFDPLLR
# modifications: also: 8-amino-3,6-dioxaoctanoic acid spacer to cellulose membrane, end not given here
# notes: human TACC3 aa 550-568 with S558D, Y560L, K562E; source: synthesised on cellulose membrane (MultiPep 2)
# B14: array peptide TACC3 550–568 S558D Y560L K562I (peptide, UniProt Q9Y6A5 550-568, looked up)
# peptide: KESALRKQDLLLIFDPLLR
# modifications: also: 8-amino-3,6-dioxaoctanoic acid spacer to cellulose membrane, end not given here
# notes: human TACC3 aa 550-568 with S558D, Y560L, K562I; source: synthesised on cellulose membrane (MultiPep 2)
# B15: array peptide TACC3 550–568 S558D Y560L K562L L567F (peptide, UniProt Q9Y6A5 550-568, looked up)
# peptide: KESALRKQDLLLLFDPLFR
# modifications: also: 8-amino-3,6-dioxaoctanoic acid spacer to cellulose membrane, end not given here
# notes: human TACC3 aa 550-568 with S558D, Y560L, K562L, L567F; source: synthesised on cellulose membrane (MultiPep 2)
# B16: array peptide TACC3 550–568 S558D Y560L K562E L567F (peptide, UniProt Q9Y6A5 550-568, looked up)
# peptide: KESALRKQDLLLEFDPLFR
# modifications: also: 8-amino-3,6-dioxaoctanoic acid spacer to cellulose membrane, end not given here
# notes: human TACC3 aa 550-568 with S558D, Y560L, K562E, L567F; source: synthesised on cellulose membrane (MultiPep 2)
# B17: array peptide TACC3 550–568 S558D Y560I K562L L567F (peptide, UniProt Q9Y6A5 550-568, looked up)
# peptide: KESALRKQDLILLFDPLFR
# modifications: also: 8-amino-3,6-dioxaoctanoic acid spacer to cellulose membrane, end not given here
# notes: human TACC3 aa 550-568 with S558D, Y560I, K562L, L567F; source: synthesised on cellulose membrane (MultiPep 2)
# B18: array peptide TACC3 550–568 S558D Y560L K562L (peptide, UniProt Q9Y6A5 550-568, looked up)
# peptide: KESALRKQDLLLLFDPLLR
# modifications: also: 8-amino-3,6-dioxaoctanoic acid spacer to cellulose membrane, end not given here
# notes: human TACC3 aa 550-568 with S558D, Y560L, K562L; source: synthesised on cellulose membrane (MultiPep 2)
# B19: array peptide TACC3 550–568 S558D Y560L K562Q L567F (peptide, UniProt Q9Y6A5 550-568, looked up)
# peptide: KESALRKQDLLLQFDPLFR
# modifications: also: 8-amino-3,6-dioxaoctanoic acid spacer to cellulose membrane, end not given here
# notes: human TACC3 aa 550-568 with S558D, Y560L, K562Q, L567F; source: synthesised on cellulose membrane (MultiPep 2)
# Target: T1, clathrin heavy chain minimal ankle …
# Experiment: fluorescence polarisation; direct binding, FAM-labelled TACC3 peptides and CHC protein; 20 mM HEPES pH 7.5, 150 mM NaCl, 5 mM DTT, 0.05% Tween-20; triplicate; one-site specific binding model
# Details: both partners purified
row,Binder,Kd [µM]
1,B1,146
2,B2,23
3,B3,26
4,B4,314
5,B5,52
6,B6,~750

# Target: T1, clathrin heavy chain minimal ankle …
# Experiment: NMR titration; CHC titrated into ~140 μM 15N-labelled GB1-TACC3 or GB1-pTACC3 to a 1:5 CHC:TACC3 molar ratio; loss of 1H–15N HSQC peak intensity
# Details: both partners purified
row,Binder,binding result
1,B7,binds

# Target: T2, biotinylated Avi-tagged ankle region of …
# Experiment: peptide or protein array; peptides synthesised on cellulose membrane; 1 μM biotinylated clathrin 358–574 in 20 mM HEPES pH 7.5, 150 mM NaCl, 5 mM DTT, 0.05% Tween-20, 1 h room temperature; anti-biotin HRP
# Details: both partners purified
row,Binder,binding result
1,B8,binds
2,B9,binds
3,B10,binds
4,B11,binds
5,B12,binds
6,B13,binds
7,B14,binds
8,B15,binds
9,B16,binds
10,B17,binds
11,B18,binds
12,B19,binds
